The labels stand for the following.
B2: Vtc4 (natural protein)
chain: MKFGEHLSKSLIRQYSYYYISYDDLKTELEDNLSKNNGQWTQELETDFLESLEIELDKVYTFCKVKHSEVFRRVKEVQEQVQHTVRLLDSNNPPTQLDFEILEEELSDIIADVHDLAKFSRLNYTGFQKIIKKHDKKTGFILKPVFQVRLDSKPFFKENYDELVVKISQLYDIARTSGRPIKGDSSAGGKQQNFVRQTTKYWVHPDNITELKLIILKHLPVLVFNTNKEFEREDSAITSIYFDNENLDLYYGRLRKDEGAEAHRLRWYGGMSTDTIFVERKTHREDWTGEKSVKARFALKERHVNDFLKGKYTVDQVFAKMRKEGKKPMNEIENLEALASEIQYVMLKKKLRPVVRSFYNRTAFQLPGDARVRISLDTELTMVREDNFDGVDRTHKNWRRTDIGVDWPFKQLDDKDICRFPYAVLEVKLQTQLGQEPPEWVRELVGSHLVEPVPKFSKFIHGVATLLNDKVDSIPFWLPQMDVDIRKPPLPTNIEITRPGRSDNEDNDFDEDDEDDAALVAAMTNAPGNSLDIEESVGYGATSAPTSNTNHVVESANAAYYQRKIRNAENPISKKYYEIVAFFDHYFNGDQISKIPKGTTFDTQIRAPPGKTICVPVRVEPKVYFATERTYLSWLSISILLGGVSTTLLTYGSPTAMIGSIGFFITSLAVLIRTVMVYAKRVVNIRLKRAVDYEDKIGPGMVSVFLILSILFSFFCNLVAK

The target of series [1] is T1, Vtc3-TAPm (S. cerevisiae, UniProt Q02725 1-835).
T1 sequence: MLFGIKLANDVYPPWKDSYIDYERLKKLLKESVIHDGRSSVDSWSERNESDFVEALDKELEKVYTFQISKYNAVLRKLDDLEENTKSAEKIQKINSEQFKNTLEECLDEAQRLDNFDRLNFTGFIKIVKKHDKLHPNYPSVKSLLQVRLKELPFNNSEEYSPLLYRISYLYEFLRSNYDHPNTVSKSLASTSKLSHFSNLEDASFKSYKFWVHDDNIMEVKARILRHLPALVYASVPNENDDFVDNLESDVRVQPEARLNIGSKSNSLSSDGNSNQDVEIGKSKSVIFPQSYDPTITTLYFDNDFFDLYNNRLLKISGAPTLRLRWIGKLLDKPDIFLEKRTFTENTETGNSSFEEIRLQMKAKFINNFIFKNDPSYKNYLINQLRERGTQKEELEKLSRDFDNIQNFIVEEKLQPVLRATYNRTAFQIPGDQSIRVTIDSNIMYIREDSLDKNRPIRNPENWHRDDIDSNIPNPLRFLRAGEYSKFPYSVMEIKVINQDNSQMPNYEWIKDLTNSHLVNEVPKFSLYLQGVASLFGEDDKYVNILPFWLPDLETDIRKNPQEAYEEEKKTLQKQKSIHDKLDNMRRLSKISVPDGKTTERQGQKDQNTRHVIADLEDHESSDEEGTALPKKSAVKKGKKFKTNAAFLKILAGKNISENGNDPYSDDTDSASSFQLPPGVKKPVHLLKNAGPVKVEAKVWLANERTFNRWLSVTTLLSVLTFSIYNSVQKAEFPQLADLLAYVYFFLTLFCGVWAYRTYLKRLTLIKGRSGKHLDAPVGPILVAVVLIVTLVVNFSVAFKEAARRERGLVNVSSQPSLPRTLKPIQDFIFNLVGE
Description: affinity co-purification of the endogenous complex.

The series “cryo-EM structure” concerns the molecule itself. Briefly: cryo-EM structure.
The series “Vtc4” deals with B2. Description: cryo-EM structure.
The target of series [2] is T1, Vtc3-TAPm. Briefly: cryo-EM structure.

B1: Vtc1 (natural protein)
chain: MSSAPLLQRTPGKKIALPTRVEPKVFFANERTFLSWLNFTVMLGGLGVGLLNFGDKIGRVSAGLFTFVAMGTMIYALVTYHWRAAAIRRRGSGPYDDRLGPTLLCFFLLVAVIINFILRLKYNDANTKL
For orientation: stoichiometry N means a count of units in the complex or per binding partner. In the case of B1, the binding result in the series with Vtc3-TAPm [1] and in the series “cryo-EM structure” was “binds” each time. Moreover, in the series with Vtc4, the “stoichiometry N” value was 3 Vtc1 per Vtc4.
With B2, the “stoichiometry N” value in the series with Vtc3-TAPm [2] turned out to be 1 Vtc4 per Vtc3.

These data come from doi:10.1101/2023.01.27.525886 (bioRxiv, 2023).
